Substitutions are numbered along the chain they refer to. Numbers in names are those of the source. Where “and” joins values, the source holds several entries; their conditions need not be identical. Equal values may be shown once.
Experiments:
[1] = target: human ErbB2, wild type, transiently overexpressed in CHO-K1 cells from pCMV6-XL5-ERBB2 (human, UniProt P04626 23-1255); assay: ELISA
[2] = target: ErbB2/delD2 (human ErbB2 lacking ECD subdomain D2) (human) (UniProt P04626); assay: ELISA
[3] = target: ErbB2/delD4 (human ErbB2 lacking ECD subdomain D4) (human) (UniProt P04626); assay: ELISA
[4] = target: human ErbB2 stably overexpressed in CHO-K1 cells (CHO-K1/ErbB2 cells, pcDNA3-ERBB2) (human, UniProt P04626 23-1255); assay: cross-linking
[5] = target: the molecule itself

B1: Recombinant human prolidase (PEPD), wild type (enzyme)
chain: MAAATGPSFWLGNETLKVPLALFALNRQRLCERLRKNPAVQAGSIVVLQGGEETQRYCTDTGVLFRQESFFHWAFGVTEPGCYGVIDVDTGKSTLFVPRLPASHATWMGKIHSKEHFKEKYAVDDVQYVDEIASVLTSQKPSVLLTLRGVNTDSGSVCREASFDGISKFEVNNTILHPEIVECRVFKTDMELEVLRYTNKISSEAHREVMKAVKVGMKEYELESLFEHYCYSRGGMRHSSYTCICGSGENSAVLHYGHAGAPNDRTIQNGDMCLFDMGGEYYCFASDITCSFPANGKFTADQKAVYEAVLRSSRAVMGAMKPGVWWPDMHRLADRIHLEELAHMGILSGSVDAMVQAHLGAVFMPHGLGHFLGIDVHDVGGYPEGVERIDEPGLRSLRTARHLQPGMVLTVEPGIYFIDHLLDEALADPARASFLNREVLQRFRGFGGVRIEEDVVVTDSGIELLTCVPRTVEEIEACMAGCDKAFTPFSGPK
[1]
  Kd: 7.3 nM
[2]
  fold reduction of binding affinity against wild-type ErbB2: 3.5 fold
[3]
  fold reduction of binding affinity against wild-type ErbB2: 51 fold
[4]
  stoichiometry N: 2 PEPD per 2 ErbB2 (heterotetramer) and 2 PEPD per 1 ErbB2 (heterotrimer)
[5]
  stoichiometry N: 2

B2: G278D-PEPD (human PEPD, G→D at amino acid no. 278) (enzyme)
chain: B1 chain with G278D
[5]
  stoichiometry N: 2

Reference: PMC4047914 (Cell Death & Disease, 2014)
